Results published in PMC3019181 (BMC Microbiology, 2010).

Molecular target: the molecule itself
Experiment: two-hybrid; yeast; pJZ4-G clones in strain RFY231 mated with pHZ5-NRT clones in strain Y309; beta-galactosidase activity in Miller units (Yeast beta-Galactosidase Assay Kit, Pierce)

B1: Wag31T73EMtb (phosphomimetic Wag31 of Mycobacterium tuberculosis) (natural protein)
chain: MPLTPADVHNVAFSKPPIGKRGYNEDEVDAFLDLVENELTRLIEENSDLRQRINELDQELAAGGGAGVTPQAEQAIPAYEPEPGKPAPAAVSAGMNEEQALKAARVLSLAQDTADRLTNTAKAESDKMLADARANAEQILGEARHTADATVAEARQRADAMLADAQSRSEAQLRQAQEKADALQADAERKHSEIMGTINQQRAVLEGRLEQLRTFEREYRTRLKTYLESQLEELGQRGSAAPVDSNADAGGFDQFNRGKN
notes: also called phosphomimetic Wag31T73EMtb; source: yeast two-hybrid fusion
- fold interaction (beta-galactosidase activity) against wild-type Wag31Mtb with itself: ~2 fold
